# Assay results taken from paper PMC6071076, “Transcriptome-Wide Identification of an Aurone Glycosyltransferase with Glycosidase Activity from Ornithogalum saundersiae” (Genes, 2018).
# B1: OsUGT1 (Ornithogalum saundersiae) (protein)
# chain: MEGKKQHVVLFPFMGQGHITPFLLLAELIHEYYPDYTITLVNTPLNIRNLQSSLPPGSKINLKSLPFDASSHGLPPDTENTKAIPFHLFINLFRASETLEPAFERLIAGITEEDGIPPLCIIADNFFSWTLHIARKFGVFHSTFLTSGAYGSALLFSLWKYLPHRNAYSDEFSLPDFPEIRLHHTQLSNILVVADGGDAWSVLLRRLNELCTRSDAVLVNTVKEFEARGLSMLREQLQGPIFPVGPLLCTSASHSMGMDLSDWLDSQPSASVLYVSFGSQNTIRASQMLKLAMALEATSRPFIWVIRPPVGFDVRVQFKSEWLPEGFEDRMRGTKQGFIVHQWAPQVEILSHPSTGAFLSHCGWNSVLESLVHGVPIIGWPLSAEQFYNSKFLMEEVGVCVEAARGNRESSEVKKEEVERAIEIVMDNEEIRRKAKETARVLKSALKEEENNTNVGSSLRGLKEFFQTALSKRVVT
# What was measured:
# [1] = substrate: O=c1cc(-c2ccccc2)oc2c(O)c(O)ccc12; assay: HPLC glucosylation assay, Lineweaver-Burk; type: biochemical, Ornithogalum saundersiae; conditions: 1 mM UDP-Glc fixed; 7,8-dihydroxyflavone 0-1 mM
# Source text: (§1) HPLC glucosylation assay, Lineweaver-Burk on OsUGT1
# [2] = substrate: O=C1/C(=C/c2ccc(O)c(O)c2)Oc2cc(O)ccc21; assay: HPLC glucosylation assay, Lineweaver-Burk; type: biochemical, Ornithogalum saundersiae; conditions: 1 mM UDP-Glc fixed; sulfuretin 0-1 mM
# Source text: as §1
protein,measurement,setting,value
B1,Km,[1],713 ± 69 µM
same,Vmax,[1],28.3 µM/min
same,Km,[2],159 ± 11 µM
same,Vmax,[2],3.47 µM/min
